Results on 16 sequences are retold here after the nanobody polyreactivity screen of Harvey et al. (2022).

The data set can be described thus: yeast display, Sf9 membrane polyspecificity reagent, FACS + sequencing; frameworks hold sequencing errors. The procedure, abridged:
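Nanobodies from a synthetic yeast display library (Saccharomyces cerevisiae BJ5465), induced 36–48 hours with galactose, were stained 1 hour at 4 °C with 10% biotinylated, detergent-solubilized Sf9 membrane reagent, enriched on streptavidin microbeads, then FACS-sorted. Anti-HA (expression) and streptavidin (reagent binding) fluorescence set low and high (top ~1%) gates. Polyreactivity labels come from the gate of origin. Genes were colony-PCR amplified, MiSeq 2 × 250 sequenced and filtered by CDR length.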
“QVQLVESGGGLVQAGGSLRLSCAASGSIFGSYVMGGYRQAPGKERELVATITNGGSTYYADSVKGRFTISRDNAKNTVYLQMNSLKPEDTAVYYCAADGRGDLYVWPGIGGDYWGQGTQVTVSS”: the “polyreactivity (PSR sort gate)” value was “low polyreactivity”.

Consider “QVQLVESGGGLVQAGGSLRLSCAASGSIFGTNAMGWYIQAPGKEREFVATISSRTGSTYYADSVKGRFTFSRDNAKNTVYLQMNSLKPEDTAVYYCAAVRWYGKYDYWGQGTQVTVSS”, for which the “polyreactivity (PSR sort gate)” value is recorded as “low polyreactivity”. For “QVQLVESGGGLVQAGGSLRLSCAASGSIFGTYAMGWYRQAPGKARELVAAITGSGGRTYYADSVKGRFTISRDNAKNTVYLQMNSLKPEDTAVYYCNKVVYVRSYPPRYDYWGQGTQVTVSS” the value was “high polyreactivity”; for “QVQLVESGGGLVQAGGSLRLSCAASGSIFGTYAMGWYRQAPGKERELVAAISWSDGSTYYADSVKGRFTISRDNAKNTVYLQMNSLKPEDTAVYYCAKVYRSIGPNVSRYGLSYYYWGQGTQVTVSS”, “low polyreactivity”; for “QVQLVESGGGLVQAGGSLRLSCAASGSIFGTYAMGWYRQAPGKERELVAAITGSGGRTYYADSVKGRFTISRDNAKNTVYLQMNSLKPEDTAVYYCNKVVYVRSYPPRYDYWGQGTQVSVSS”, “high polyreactivity”.

Take “QVQLVESGGGLVQAGGSLRLSCAASGSIFGTYAMRWYIQAPGKERDLVATISYGDGYTYYADSVKGRFTISRDNAKNTVYLLMNSLKPEDTPVYYCNTGVFSSGGPLVYWGEGTQVTVSS”: the “polyreactivity (PSR sort gate)” value was “low polyreactivity”. For “QVQLVESGGGLVQAGGSLRLSCAASGSIFGVNMGWYRQAPGKERELVASITSGGSTNYADSVKGRFTISRDNAKNTVYLQMNSLKPEDTAVYYCATDRYVWGQGTQVTVSS” the value was “low polyreactivity”.

In the case of “QVQLVESGGGLVQAGGSLRLSCAASGSIFGVYAMGLYRQAPGKERELVASIDTSTGSTYYADSVKGRFTISRDNAKNTVYLQMNSLKPEDTAVYYCNADVGYYFTFEYWGQGTQVTVSS”, the “polyreactivity (PSR sort gate)” value is given as “high polyreactivity”.

As to “QVQLVESGGGLVQAGGSLRLSCAASGSIFGVYAMGWYRQAPGKERELVAGITFGDSTTYYADSVKGRFTISRDNAKNTVYLQMNSLKPEDTAVYYCAADNRWEDYKVDYWGQGTQVTVSS”, the “polyreactivity (PSR sort gate)” value is reported as “low polyreactivity”.

As for “QVQLVESGGGLVQAGGSLRLSCAASGSIFGVYAMGWYRQAPGKERELVAVITYRDGSTYYADSVKGRFTISRVNAKNTVYLQMNSLKPEDSAVYYCAADSYLGWHSDYGVEYYYWGQGTQVTVSS”, the “polyreactivity (PSR sort gate)” value was “low polyreactivity”. For “QVQLVESGGGLVQAGGSLRLSCAASGSIFGVYDMGWYRQAPGKERELVAVINSNGGSTYYADSVKGRFTISRDNAKNTVYLQMNSLKPEDTAVYYCAAERATVKFGYWGQGTQVTVSS”, the “polyreactivity (PSR sort gate)” value is listed as “low polyreactivity”. For the sequence “QVQLVESGGGLVQAGGSLRLSCAASGSIFGYNARGWYRQAPGKERELVATINWSGTSTYYAASVKGRFTISRDNAKNTVYLQMNSLKPVDTAVYYCNAKYLWYGRYNYWGQGTQVTVSS”, the “polyreactivity (PSR sort gate)” value is recorded as “high polyreactivity”.

Take “QVQLVESGGGLVQAGGSLRLSCAASGSIFGYNTMGWYREAPGKERELVAAISYRGGSTYADSVKGRFTISRDNAKNTVYLQLNSLKPEDTAVYYSAATSYTATWRYYYWGQGTQVTVSS”: the “polyreactivity (PSR sort gate)” value is “high polyreactivity”. The result for “QVQLVESGGGLVQAGGSLRLSCAASGSIFGYNVMGWYRQAPGKERELVAAITYSGGSTYYADSVKGRFTISRDNAKNTVYLQMNSQKQEDTAVYYCAKVTGRRFPAYGYDHWGQGTQVTVSS” reads “high polyreactivity”; that for “QVQLVESGGGLVQAGGSLRLSCAASGSIFGYYALGWSRPAPGKERELVASITSGDSTNYADSVKGRFTISRDNAKKTVYLQMNSQKPEDTAVYYCTTERGDYDEYDYWGQGTQVTVSS”, “low polyreactivity”.

Take “QVQLVESGGGLVQAGGSLRLSCAASGSIFGYYAMGWYRQAPGKERELVAAINSSGGSTYYADSVKGRFTISRDNAKNTVYLQMNSLKPDDTAVYYCAVRTRYKFNYWGQGTQVTVSS”: the “polyreactivity (PSR sort gate)” value is given as “low polyreactivity”.
